In patent US20180185455A1 (OCTAPHARMA, published 2018):
Blank lines part the entries; values can stand above or below the molecule they belong to.

Assays:
recombinant Factor VIII [1] = target: recombinant Factor VIII (UniProt P00451); test: SPR (Biacore 2000), rFVIII coupled to CM5 chip, fragment injected
recombinant Factor VIII [2] = target: recombinant Factor VIII (UniProt P00451); test: SPR (Biacore 2000), rFVIII coupled to CM5 chip, VWF injected
[3] = target: recombinant fragment III dimer with C-terminal Strep-Tag (human) (UniProt P04275); test: SPR (Biacore 2000), fragment III dimer immobilized on CM5, FVIII concentration series injected
[4] = target: recombinant fragment III monomer with C-terminal Strep-Tag (human) (UniProt P04275); test: SPR (Biacore 2000), fragment III monomer immobilized on CM5, FVIII concentration series injected
[5] = target: plasma derived full length Von Willebrand Factor (human) (UniProt P04275); test: SPR (Biacore 2000), plasma derived flVWF immobilized on a CM5 chip, FVIII concentration series injected; mean of n=4 per the legend
[6] = target: T1, plasma derived full length Von Willebrand Factor (human, UniProt P04275 764-2813); test: SPR (Biacore 2000), collagen type III coupled to CM5 chip, VWF injected
T1 construct: Plasma VWF is multimeric; also called pdVWF; flVWF
Method: (§1) The analysis was carried out using Biacore 2000 instrument (GE Healthcare) according to Romjin et al. 2003 with modifications. Briefly human pepsin-digested collagen type III was covalently bound to the surface of a CM5 sensor chip. Subsequently the samples were injected over the sensor chip surface. The running buffer was 10 mM HEPES, 150 mM NaCl, 3.4 mM EDTA, 0.005% Tween 20.

[7] = target: T2, fragment III (SPIII, res. 764-2128) from plasma derived Von Willebrand Factor (human, UniProt P04275 764-2128); test: SPR (Biacore 2000), collagen type III coupled to CM5 chip, fragment injected
T2 construct: Made by S. aureus V-8 protease digestion of pdVWF; also called VWF fragment III
Method: as §1

Molecule: fragment III (SPIII, res. 764-2128) from plasma derived Von Willebrand Factor (from UniProt P04275 764-2128)
Kd (recombinant Factor VIII [1]): 6.18 nM

Molecule: plasma derived full length Von Willebrand Factor (from UniProt P04275 764-2813)
Kd (recombinant Factor VIII [2]): 0.67 nM

B1: human pepsin-digested collagen type III (other, UniProt P02461 168-1196, looked up)
chain: GLAGYPGPAGPPGPPGPPGTSGHPGSPGSPGYQGPPGEPGQAGPSGPPGPPGAIGPSGPAGKDGESGRPGRPGERGLPGPPGIKGPAGIPGFPGMKGHRGFDGRNGEKGETGAPGLKGENGLPGENGAPGPMGPRGAPGERGRPGLPGAAGARGNDGARGSDGQPGPPGPPGTAGFPGSPGAKGEVGPAGSPGSNGAPGQRGEPGPQGHAGAQGPPGPPGINGSPGGKGEMGPAGIPGAPGLMGARGPPGPAGANGAPGLRGGAGEPGKNGAKGEPGPRGERGEAGIPGVPGAKGEDGKDGSPGEPGANGLPGAAGERGAPGFRGPAGPNGIPGEKGPAGERGAPGPAGPRGAAGEPGRDGVPGGPGMRGMPGSPGGPGSDGKPGPPGSQGESGRPGPPGPSGPRGQPGVMGFPGPKGNDGAPGKNGERGGPGGPGPQGPPGKNGETGPQGPPGPTGPGGDKGDTGPPGPQGLQGLPGTGGPPGENGKPGEPGPKGDAGAPGAPGGKGDAGAPGERGPPGLAGAPGLRGGAGPPGPEGGKGAAGPPGPPGAAGTPGLQGMPGERGGLGSPGPKGDKGEPGGPGADGVPGKDGPRGPTGPIGPPGPAGQPGDKGEGGAPGLPGIAGPRGSPGERGETGPPGPAGFPGAPGQNGEPGGKGERGAPGEKGEGGPPGVAGPPGGSGPAGPPGPQGVKGERGSPGGPGAAGFPGARGLPGPPGSNGNPGPPGPSGSPGKDGPPGPAGNTGAPGSPGVSGPKGDAGQPGEKGSPGAQGPPGAPGPLGIAGITGARGLAGPPGMPGPRGSPGPQGVKGESGKPGANGLSGERGPPGPQGLPGLAGTAGEPGRDGNPGSDGLPGRDGSPGGKGDRGENGSPGAPGAPGHPGPPGPVGPAGKSGDRGESGPAGPAGAPGPAGSRGAPGPQGPRGDKGETGERGAAGIKGHRGFPGNPGAPGSPGPAGQQGAIGSPGPAGPRGPVGPSGPPGKDGTSGHPGPIGPPGPRGNRGERGSEGSPGHPGQPGPPGPPGAPGPC
notes: also called collagen III
Kd [6]: 0.75 nM | Kd [7]: 17 nM

More lines, now with the values ahead:

Kd (recombinant Factor VIII [1]): 155 nM
Molecule: fragment II (res. 764-1673) of Von Willebrand Factor (from UniProt P04275 764-1673)

Kd [3]: 1.9 nM | Kd [4]: 14.3 nM | Kd [5]: 0.25 nM
Molecule: recombinant Factor VIII (from UniProt P00451 20-2351)
